One data set addresses T1, mouse HER3 (Mus musculus, UniProt Q61526).
T1 construct: purchased Sino Biological Inc., China
Nature of the data set: ELISA cross-reactivity, mouse HER3. The data set is classed as binding. On the procedure:
(§1) ELISAs were used to determine the binding specificity of the antibodies. The antibodies were analysed for binding to human HER3 polypeptide, as well as respective mouse, rat and monkey homologues of HER3 (Sino Biological Inc., China). The antibodies were also analysed for their ability to bind to human EGFR and human HER2 (Sino Biological Inc., China).
(§2) ELISAs were carried out according to standard protocols. Briefly, 96-well plates (Nunc, Denmark) were coated with 0.1 μg/ml of target polypeptide in phosphate-buffered saline (PBS) for 16 h at 4° C. After blocking for 1 h with 1% BSA in Tris buffer saline (TBS) at room temperature, the anti-HER3 antibody was serially diluted with the highest concentration being 10 μg/ml, and added to the plate. Post 1 h incubation at room temperature, plates were washed three times with TBS containing 0.05% Tween 20 (TBS-T) and were then incubated with a HRP-conjugated anti-His antibody (Life Technologies, Inc., USA) for 1 h at room temperature. After washing, plates were developed with colorimetric detection substrate 3,3′,5,5′-tetramethylbenzidine (Turbo-TMB; Pierce, USA) for 10 min. The reaction was stopped with 2M H2SO4, and OD was measured at 450 nm. […]
In general terms: ELISA stands for enzyme-linked immunosorbent assay.

The next data set concerns the target T2, rat HER3 (Rattus norvegicus, UniProt Q62799).
T2 construct: purchased Sino Biological Inc., China
Description: ELISA cross-reactivity, rat HER3. The data set is classed as binding. Here is the method:
as §1, §2

Another data set deals with cynomolgus macaque HER3. Nature of the data set: ELISA cross-reactivity, cynomolgus macaque HER3. The class given is binding. Here is the method: as §1, §2
Another data set addresses T3, human EGFR (Homo sapiens, UniProt P00533).
T3 construct: purchased Sino Biological Inc., China
Nature of the data set: ELISA specificity, human EGFR. The data set is classed as binding. To be noted: antibody up to 10 μg/ml. On the procedure: as §1
(§3) ELISAs were carried out according to standard protocols. Briefly, 96-well plates (Nunc, Denmark) were coated with 0.1 μg/ml of target polypeptide in phosphate-buffered saline (PBS) for 16 h at 4° C. After blocking for 1 h with 1% BSA in Tris buffer saline (TBS) at room temperature, the anti-HER3 antibody was serially diluted with the highest concentration being 10 μg/ml, and added to the plate. Post 1 h incubation at room temperature, plates were washed three times with TBS containing 0.05% Tween 20 (TBS-T) and were then incubated with a HRP-conjugated anti-His antibody (Life Technologies, Inc., USA) for 1 h at room temperature. […] The reaction was stopped with 2M H2SO4, and OD was measured at 450 nm.
(§4) The antibodies were analysed for their ability to bind to human HER3 polypeptide as well as human HER1 (EGFR) and human HER2 (Sino Biological Inc., China). […]
(§5) ELISAs were carried out according to standard protocols. […] The reaction was stopped with 2M H2SO4, and OD was measured at 450 nm.

The target in the next data set is T4, human HER2 (Homo sapiens, UniProt P04626).
T4 construct: purchased Sino Biological Inc., China
Description: ELISA specificity, human HER2. The data set is classed as binding. To be noted: antibody up to 10 μg/ml. Here is the method:
as §1, §3, §4, §5

The test system of data set [1] is A549 cell-line derived mouse model of lung adenocarcinoma. Description: A549 cell-line derived xenograft model. The class given is in vivo. To be noted: A549, NPG mice, IP weekly 500 μg, 4 doses.
Data set [2] deals with T5, human HER3 (Homo sapiens, UniProt P21860). Description: Global affinity study, Bio-Layer Interferometry (Octet QK384). The data set is classed as binding. To be noted: BLI, His-tagged human HER3, IgG1 format, 25° C.; read-out: Affinity (KD). On the procedure:
The anti-HER3 antibody clones in IgG1 format were analysed for binding affinity to human HER3. Bio-Layer Interferometry (BLI) experiments were performed using the Octet QK384 system (ForteBio). anti-Human IgG Capture (AHC) Octet sensor tips (Pall ForteBio, USA) were used to anti-HER3 antibodies (25 nM). All measurements were performed at 25° C. with agitation at 1000 rpm. Kinetic measurements for antigen binding were performed by loading His-tagged human HER3 antigens at different concentrations for 120 s, followed by a 120 s dissociation time by transferring the biosensors into assay buffer containing wells. Sensograms were referenced for buffer effects and then fitted using the Octet QK384 user software (Pall ForteBio, USA). Kinetic responses were subjected to a global fitting using a one site binding model to obtain values for association (Kon), dissociation (Koff) rate constants and the equilibrium dissociation constant (KD). Only curves that could be reliably fitted with the software (R^2>0.90) were included in the analysis.
Bio-Layer Interferometry (BLI) experiments were performed using the Octet QK384 system (ForteBio). […] Binding was detected using titrated HIS-tagged human HER3 in steps of baseline (60 s), loading (120 s), baseline2 (60 s), association (120 s), dissociation (FcA 120 s, FcB 600 s) and regeneration (15 s). Sensorgrams were analysed as described in Example 3.3. […]

For data set [3], the target named is T5, human HER3. Nature of the data set: BLI binding to HER3 in absence of NRG1 ('closed' conformation). Here is the method: (§6) In further experiments, anti-HER3 antibodies were analysed in order to determine the affinity of binding to human HER3 in the context of a human HER3:human NRG1 complex (that is, HER3 provided in the ligand-bound, ‘open’ conformation), as compared to the affinity of binding to human HER3 in the absence of NRG1 complex (that is, HER3 provided in the unbound, ‘closed’ conformation).
(§7) Binding of anti-HER3 antibodies to human HER3 was evaluated by BLI. Briefly, anti-Human IgG Capture (AHC) sensors (ForteBio) were loaded with anti-HER3 IgG antibodies (25 nM). Kinetic measurements were performed in absence or presence of NRG1. NRG1 was used at 1:1 molar ratio with HER3 wherein the complex was allowed to form at RT for 2 h. His-tagged human HER3 or HER3-NRG1 complexes were loaded to antibody coated AHC sensors at different concentrations for 120 s, followed by a 120 s dissociation time. All measurements were performed at 25° C. with agitation at 1000 rpm. Sensorgrams were referenced for buffer effects and then analyzed using the Octet QK384-software (ForteBio). Kinetic responses were globally fitted using a one-site binding model to obtain values for association (Kon), dissociation (Koff) rate constants and the equilibrium dissociation constant (KD).
(Biolayer interferometry detects binding as a change in optical thickness at a sensor tip.)

Data set [4] deals with human HER3:human NRG1 complex (Homo sapiens, UniProt P21860). Nature of the data set: BLI binding to HER3-NRG1 complex ('open' conformation). To be noted: presence of NRG1 (1:1 molar ratio). Here is the method: as §6, §7
In data set [5] the target is T5, human HER3. Description: Immunohistochemistry on frozen human tissue arrays. Also noted: Arrays of commercially-available frozen tissue sections were obtained; from tissue; host or cells: frozen human normal and malignant tissue section arrays. The following applies: mIgG2a format. Here is the method:
Anti-HER3 antibody 10D1F in mIgG2a format was evaluated for its ability to be used in immunohistochemistry for the detection of human HER3 protein.
Processing of sections was performed using Bond reagents (Leica Biosystems). Arrays of commercially-available frozen tissue sections were obtained. Slides were dried in a desiccator for 10 min and then subjected to the following treatments, with water washes and/or TBS-T rinses between steps: (i) fixation by treatment with 100% acetone for 10 min at room temperature; (ii) endogenous peroxidase blocking by treatment with 3% (v/v) H2O2 for 15 min at room temperature; (iii) blocking by treatment with 10% goat serum for 30 min at room temperature, (iv) incubation with 10D1 F-mIgG2a at 1:250 dilution of a 6.2 mg/ml solution overnight at 4° C., (v) incubation with HRP-polymer conjugated goat anti-mouse antibody for 30 min at room temperature, and (vi) development with Bond Mixed DAB Refine for 5 min at room temperature, followed by rinsing with deionised water and 1× Bond Wash to stop the reaction.
Slides were then dehydrated, mounted in synthetic mounting media and scanned with high resolution.

For data set [6] the following is noted: clinical, literature, cited from earlier work.

T2 sequence (Q62799 20-1339): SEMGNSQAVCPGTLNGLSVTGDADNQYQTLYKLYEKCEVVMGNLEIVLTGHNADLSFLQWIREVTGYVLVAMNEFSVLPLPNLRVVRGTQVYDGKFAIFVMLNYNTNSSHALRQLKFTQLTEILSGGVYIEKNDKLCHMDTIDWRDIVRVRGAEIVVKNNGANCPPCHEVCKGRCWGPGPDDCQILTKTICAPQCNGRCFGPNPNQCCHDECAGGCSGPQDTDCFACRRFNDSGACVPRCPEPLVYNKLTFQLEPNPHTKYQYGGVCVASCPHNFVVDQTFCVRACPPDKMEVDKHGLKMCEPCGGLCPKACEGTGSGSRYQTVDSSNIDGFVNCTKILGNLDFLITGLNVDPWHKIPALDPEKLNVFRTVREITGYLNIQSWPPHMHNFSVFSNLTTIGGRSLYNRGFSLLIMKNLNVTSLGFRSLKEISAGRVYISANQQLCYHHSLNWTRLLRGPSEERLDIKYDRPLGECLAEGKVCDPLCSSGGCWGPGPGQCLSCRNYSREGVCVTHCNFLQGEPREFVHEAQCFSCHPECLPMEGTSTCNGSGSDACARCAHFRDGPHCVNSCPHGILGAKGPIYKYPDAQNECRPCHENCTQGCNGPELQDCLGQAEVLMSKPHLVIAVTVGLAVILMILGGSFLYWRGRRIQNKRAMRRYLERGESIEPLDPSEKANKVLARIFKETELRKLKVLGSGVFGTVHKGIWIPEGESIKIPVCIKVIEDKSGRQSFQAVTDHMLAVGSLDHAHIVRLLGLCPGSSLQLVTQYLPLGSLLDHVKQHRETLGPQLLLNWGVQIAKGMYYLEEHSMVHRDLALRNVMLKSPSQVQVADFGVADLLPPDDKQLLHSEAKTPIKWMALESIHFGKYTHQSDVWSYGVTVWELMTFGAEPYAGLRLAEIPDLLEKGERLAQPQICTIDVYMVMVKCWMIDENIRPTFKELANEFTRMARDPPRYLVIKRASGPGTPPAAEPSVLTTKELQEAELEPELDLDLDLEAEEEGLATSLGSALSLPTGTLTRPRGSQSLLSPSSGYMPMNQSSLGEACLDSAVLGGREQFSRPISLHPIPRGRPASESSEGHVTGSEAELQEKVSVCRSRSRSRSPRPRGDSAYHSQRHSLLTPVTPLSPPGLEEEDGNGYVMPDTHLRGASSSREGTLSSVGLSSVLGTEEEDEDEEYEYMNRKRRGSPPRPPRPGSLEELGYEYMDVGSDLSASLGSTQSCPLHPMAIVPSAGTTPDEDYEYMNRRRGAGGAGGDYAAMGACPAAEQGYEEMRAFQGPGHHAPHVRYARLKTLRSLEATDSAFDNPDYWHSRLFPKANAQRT
T1 sequence (Q61526 20-1339): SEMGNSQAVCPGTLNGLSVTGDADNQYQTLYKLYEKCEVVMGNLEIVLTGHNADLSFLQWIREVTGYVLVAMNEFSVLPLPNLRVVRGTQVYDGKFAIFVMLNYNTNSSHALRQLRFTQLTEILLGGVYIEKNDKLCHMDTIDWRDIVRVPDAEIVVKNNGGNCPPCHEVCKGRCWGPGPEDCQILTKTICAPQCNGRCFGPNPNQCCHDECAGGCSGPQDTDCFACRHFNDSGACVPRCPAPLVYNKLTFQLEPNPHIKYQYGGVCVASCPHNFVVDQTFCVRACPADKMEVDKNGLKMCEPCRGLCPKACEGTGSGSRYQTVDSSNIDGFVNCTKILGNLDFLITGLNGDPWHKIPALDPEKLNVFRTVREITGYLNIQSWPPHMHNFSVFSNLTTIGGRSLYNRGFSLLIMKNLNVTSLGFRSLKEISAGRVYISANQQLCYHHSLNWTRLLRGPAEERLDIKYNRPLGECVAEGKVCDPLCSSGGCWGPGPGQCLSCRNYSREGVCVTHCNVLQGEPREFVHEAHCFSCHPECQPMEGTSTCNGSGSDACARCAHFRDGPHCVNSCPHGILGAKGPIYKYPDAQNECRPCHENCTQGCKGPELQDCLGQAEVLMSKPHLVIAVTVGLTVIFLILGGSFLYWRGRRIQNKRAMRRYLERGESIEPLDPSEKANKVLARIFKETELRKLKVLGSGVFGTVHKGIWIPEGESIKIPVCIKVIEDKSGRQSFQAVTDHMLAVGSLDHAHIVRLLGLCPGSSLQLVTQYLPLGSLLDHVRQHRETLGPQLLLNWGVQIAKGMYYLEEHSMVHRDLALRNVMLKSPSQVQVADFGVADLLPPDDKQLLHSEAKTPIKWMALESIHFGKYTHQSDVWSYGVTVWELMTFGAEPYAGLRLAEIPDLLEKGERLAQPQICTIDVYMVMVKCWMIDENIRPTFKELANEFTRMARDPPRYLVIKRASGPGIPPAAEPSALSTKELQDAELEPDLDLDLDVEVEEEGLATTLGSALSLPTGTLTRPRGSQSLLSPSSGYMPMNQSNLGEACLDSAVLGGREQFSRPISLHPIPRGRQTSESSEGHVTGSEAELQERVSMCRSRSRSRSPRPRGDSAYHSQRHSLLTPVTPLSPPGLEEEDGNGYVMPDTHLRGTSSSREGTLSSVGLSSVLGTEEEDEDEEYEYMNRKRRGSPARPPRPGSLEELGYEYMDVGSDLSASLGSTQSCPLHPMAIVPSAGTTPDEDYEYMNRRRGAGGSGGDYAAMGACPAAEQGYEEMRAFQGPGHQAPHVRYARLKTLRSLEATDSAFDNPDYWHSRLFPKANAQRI

B1: 4-35-B2: anti-HER3 antibody clone, VH SEQ ID NO:127, VL SEQ ID NO:135 (antibody, V domains shown)
VH: EIQLQQSGPELVKPGASVKVSCKASGYSFTDYNMYWVKQSHGKSLEWIGHINPYNGGTTYNQKFKGRATLTVDKSSSTAFMHLNSLTSEDSAVYFCVSLRWGAMDYWGQGTSVTVSS
VL: QIVLTQSPALMSASPGEKVTMTCSASSSVSYMYWYQQKPRSSPKPWIYLTSNLASGVPARFSGSGSGTSYSLTISSMEAEDAATYYCQQWNSNPYTFGGGTKLEIK
For B1, the “binding / cross-reactivity with mouse HER3” value with mouse HER3 is “substantial cross-reactivity”. In addition, the “binding / cross-reactivity with rat HER3” value in the data set with rat HER3 is listed as “substantial cross-reactivity”. Moreover, the “binding / cross-reactivity with cynomolgus macaque HER3” value in the data set with cynomolgus macaque HER3 was “substantial cross-reactivity”. Moreover, the “binding to human EGFR (HER1)” value with human EGFR is “found to bind”. In the data set with human HER2, the “binding to human HER2” value is recorded as “found to bind”. Besides, in data set [1], the “inhibition of tumor growth” value is listed as roughly 63%.

B2: 10D1_c89: clone 10D1F comprises VH of SEQ ID NO:36 and VL of SEQ ID NO:83 (antibody, V domains shown)
VH: QVQLQESGPGLVKPSQTLSLTCTVSGYSITSGYSWHWIRQHPGKGLEWIGSIRYSGGTDYNPSLKSLVTISADTSKNQFSLKLSSVTAADTAVYYCARMTTAPWYPFDYWGQGTTVTVSS
VL: DIQMTQSPSSVSASVGDRVTITCKASQIVGSNVAWYQQKPGKAPEPLIYSASYLYSGVPSRFSGSGSGTDFTLTISSLQPEDFATYYCQQYSSHPLTFGQGTKLEIK
For B2, the Kd (commonly the concentration at which binding is half-saturated) with human HER3 [2] stood at 0.0726 nM. The “affinity of binding to human HER3” value (with human HER3 [3]; in [4]) was “sub-picomolar affinity” each time. The “immunohistochemical staining of malignant and normal human tissue” value with human HER3 [5] is “preferentially stained malignant human tissue sections, with low cross-reactivity to normal tissue”.

B3: MM-121: anti-HER3 antibody blocking binding of heregulin (NRG) to HER3 (antibody, chains of the INN, looked up)
heavy: EVQLLESGGGLVQPGGSLRLSCAASGFTFSHYVMAWVRQAPGKGLEWVSSISSSGGWTLYADSVKGRFTISRDNSKNTLYLQMNSLRAEDTAVYYCTRGLKMATIFDYWGQGTLVTVSSASTKGPSVFPLAPCSRSTSESTAALGCLVKDYFPEPVTVSWNSGALTSGVHTFPAVLQSSGLYSLSSVVTVPSSNFGTQTYTCNVDHKPSNTKVDKTVERKCCVECPPCPAPPVAGPSVFLFPPKPKDTLMISRTPEVTCVVVDVSHEDPEVQFNWYVDGVEVHNAKTKPREEQFNSTFRVVSVLTVVHQDWLNGKEYKCKVSNKGLPAPIEKTISKTKGQPREPQVYTLPPSREEMTKNQVSLTCLVKGFYPSDIAVEWESNGQPENNYKTTPPMLDSDGSFFLYSKLTVDKSRWQQGNVFSCSVMHEALHNHYTQKSLSLSPG
light: QSALTQPASVSGSPGQSITISCTGTSSDVGSYNVVSWYQQHPGKAPKLIIYEVSQRPSGVSNRFSGSKSGNTASLTISGLQTEDEADYYCCSYAGSSIFVIFGGGTKVTVLGQPKAAPSVTLFPPSSEELQANKATLVCLVSDFYPGAVTVAWKADGSPVKVGVETTKPSKQSNNKYAASSYLSLTPEQWKSHRSYSCRVTHEGSTVEKTVAPAECS
With B3, in data set [6], the “T½ (terminal half life)” value is recorded as 10.5 days. Moreover, in [6] (normalised to per mg/kg dosed), the “Cmax (μg/ml) normalised to per mg/kg dosed” value is 24 to 25 µg/mL.

The record behind these values is US20250122303A1, “TREATMENT AND PREVENTION OF CANCER USING HER3 ANTIGEN-BINDING MOLECULES” (Hummingbird Bioscience Pte. Ltd., priority 2021, published 2025).
